Laboratory results as given in the DeepSol protein solubility set.

experiment: soluble on expression in E. coli; label from the status in PepcDB or PDB records

Row | Sequence | soluble on expression in E. coli
1 | MLPNVAVEFDENSIFRSLGKGNLTFREAFEEIIKFIEADTNSSYRISIGTDSHVGNGTLFVTCIHVHRIGKGAIGFLHKSLMSRPIRNLREKIYMETCMSLQLAYLFDEEKIDRIYKALGKNGKSPTKGVTFEFHIDIGKRGETKALINEMVGMVSGLNFIPKIKPDSYCASCFADRYTKAI | soluble
2 | MSLTNTNAVELVKEAIDRGAEIILVKVDSKKYVKMSLELVKHFTEFAEGIFVTLNRPYFSLKKMLLKEGVDISKLYFIDCITLQLGGQVIDEERCFYLTSPDPVQLQVTIERAMDLVTVNNRFIYLDSLSTISLYKSFETLVKFLRHLTGKMRLRGFVGTIFTIEKEMDESYYSQISLMVDEVIEVDEGHHHHHH | soluble
3 | FSSREQPQQNEGQIQKLNALKPDNRIESEGGLIETWNPNNKPFQCAGVALSRCTLNRNALRRPSYTNGPQEIYIQQGKGIFGMIYPGCPSTFEEPQQPQQRGQSSRPQDRHQKIYNFREGDLIAVPTGVAWWMYNNEDTPVVAVSIIDTNSLENQLDQMPRRFYLAGNQEQEFLKYQQEQGGHQSQKGKHQQEEENEGGSILSGFTLEFLEHAFSVDKQIAKNLQGENEGEDKGAIVTVKGGLSVIKPPTDEQQQRPQEEEEEEEDEKPQCKGKDKHCQRPRGSQSKSRRNGIDETICTMRLRHNIGQTSSPDIYNPQAGSVTTATSLDFPALSWLRLSAEFGSLRKNAMFVPHYNLNANSIIYALNGRALIQVVNCNGERVFDGELQEGRVLIVPQNFVVAARSQSDNFEYVSFKTNDTPMIGTLAGANSLLNALPEEVIQHTFNLKSQQARQIKNNNPFKFLVPPQESQKRAVA | soluble
4 | ENEIERPEDMRVRTLANKSKMKVSIVQQIDRKVALDDIAVSHGLDFPELLSEVETIVYSGTRINIDYFINEVMDEDHLEDIFEYFKESTTDSLEEAMQELGKDYSEEEIRLVRIKFLSEMAN | soluble
5 | MLRVLSRQAFSMVRAANFSASASSAGGGGLSDEVRKRIDGIVKKDDVVVFMKGTQQEPACGFSRNVKLVLDFHNVKFQDYNVLTDQELREGVKIFSEWPTIPQVYVKGEFVGGCDILISMHKDGEISDFLDEKGISNKYGKQ | not soluble
6 | GMADIDQASKTEMEAAAFRHLLRHLDEHKDVQNIDLMIQADFCRNCLAKWLMEAATEQGVELDYDGAREYVYGMPFAEWKTLYQKPASEAQLAAFEAKQAARKR | soluble
7 | MTLTTTLTTGLALLLAAQALPAPASAAPAAVGSVTIGWADATHELIKITWTETTAAANTLTLHTDDPETAAVRFGTTTADQPNEYLVDPTQLGYTADPRHTSWILVSDGTATTARSVDFDRFHHAQRGAALSFAGDRVRWTAPADTSVDGTPGDPLDLPKAYTYQPMQRVDDDPVGNYECKDTELPATTERTGLVPNPGTAYDLFLTMTNEWGTADVGYLQVGTTQTVTADGPAATAYGATTTIKGHAEGTVMFEQGRPPVCDEVRVDLSNQPLTVQQRTSSTAPWTVVGTVRTTVNGDYTAVVKNPGHRQYRVVRPNTAAFESAWYGGTSGVITVRSLTRVVSAKFIQPVVRLGTRPQAYLWVDPAGTQKAALQFRNAAGAWQGVTYKTLYAGRGLVSFPWNRRGTTRFRWWVPASGGAESVVSPVFTVTVT | not soluble
8 | MILDSQLAQQIVDRTMAIIGYNINVMNQAGVIIGSGEKNRIGQVHDGAILALKHGDSVELTAESCVALKGVKPGINMVLRNQQQVVGIVGITGEPKDIRDFANLVKMSAEMIIEQAALVEQLQWDRRHREEFISAWIHNTLSAAELDAWAARLSIDLSKPRVAVVIAFRQPKSGQSLDQIRQVVELLEHPERDNLVAVVSMQEIVVLKPCRTPEHWTSEYESLRIDKLMARLKAYDITGYDIALGQLFINPNAIHLSYQSAKQVLRIGQVRQPEKQKHLYEELRLPVLLLPLNEGWQGEQWRRVMQELQTQDKSGQLVKTLKGLFAANGNLNLCAQQLFIHRNTLRYRLEKITEITGIETNSLLGLAELYIAYQLTSYD | soluble
9 | MNNKLVRSLKYNDVYGELYSYENSSALTVIFPGINYGHEKPLLYYARKAAAQNNIDILCINYKNKISWEDIGKQSIEDVAIEIKGIIKNVIEKKYDNIYFLGKSVGTEIAGCTSSKLNIDNIKFLYLTPIEETLKYIVDRKCIVVSGTKDEFFKSECINKIRENKNVKLMLFEGANHSLEIKDDIIRSLRILDNVAQLYLDFFK | not soluble
10 | SNAHKGTLYVVATPLGNLDDMTFRAVNTLRNAGAIACEDTRRTSILLKHFGIEGKRLVSYHSFNEERAVRQVIELLEEGSDVALVTDAGTPAISDPGYTMASAAHAAGLPVVPVPGA | soluble
11 | MEKAADLQDTASLTLKFKFNPKLGIDNPVLSLAEDHDPYDPWSLERPRFCLLSKEEGKSFGFHLQQELGRAGHVVCRVDPGTSAQRQGLQEGDRILAVNNDVVEHEDYAVVVRRIRASSPRVLLTVLARHAHDVARAQLGEDAHLCPTLGPGVRPRLCHIVKDEGGFGFSVTHGNQGPFWLVLSTGGAAERAGVPPGARLLEVNGLWQSGQQVTLLVAGPEVEEQCRQLGLPLAAPLAEGWALPTKPRCLHLEKGPQGFGFLLREEKGLDGRPGQFLWEVDPGLPAKKAGMQAGDRLVAVAGESVEGLGHEETVSRIQGQGSCVSLTVVDPEADRFFSMVRLSPLLFLENTEAPASPQGSSSASLVETEDPSLEDTSVPSVPLGSRQCFLYPGPGGSYGFRLSCVASGPRLFISQVTPGGSAARAGLQVGDVILEVNGYPVGGQNDLERLQQLPEAEPPLCLKLAARSLRGLEAWIPPGAAEDWALASDLL | soluble
12 | HHHHHHSVFEDDLPFLEFTGSIVYSYDASDCSFLSEDISMSLSDGDVVGFDMEWPPLYNRGKLGKVALIQLCVSESKCYLFHVSSMSVFPQGLKMLLENKAVKKAGVGIEGDQWKLLRDFDIKLKNFVELTDVANKKLKCTETWSLNSLVKHLLGKQLLKDKSIRCSNWSKFPLTEDQKLYAATDAYAGFIIYRNLEILDDTVQR | soluble
13 | MTTYDRNRNAITTGSRVMVSGTGHTGKILSIDTEGLTAEQIRRGKTVVVEGCEEKLAPLDLIRLGMN | soluble
14 | MKFPGQRKSKHYFPVKTRDPLLEQLTQQPQPFATYISGIDQTLVDIEAKVEDELLSRYGLPKGNSTLINDEQAHRLYTELKIHGLISDEFAGGTIGNTVHNYSILADDRSVLFGVMSQNIEVGSYAYRYLCNTSSKVDLNYLQPVDGPIGRCFTLISDCGERTFAISKGAMDKLTPEFIDKDVVQGSSALVLTAYLMRASGGDRITDAAMCAIEYAKAADVPVVLTLGTRFLIEEDPLWWQNFIKEHVTILAMNEDEGEALTGSRDPLLASEKALEWCDMVLTTAGPIGLYTAGYTEDSEKRETTHTLLPGAIPEFNRYEFSRPKLKSDCETPIKVYAHISPYMGGPEKIGNTNGAGDGALSALLHDLAANTFHKTNVPGSSKHKRDGLCYSSFSQICKYANRVAYEVLAQHSPRLSRGLPEREDSLEESYWER | soluble
15 | MFKRTKLILIATLLLSGCSTTNNESNNETKSVPEEMEASKYVGQGFQPPAEKDAIEFAKKHRKEFEKVGEQFFKDNFGLKVKATNVVGKDDGIEVYVHCDDHGIVFNASLPLYKDAIHQKGSMRSNDNGDDMSMMVGTVLSGFEYRAQKEKYDNLYKFFKENEKKYQYTGFTKEAINKTQNVGYKNEYFYITYSSRSLKEYRKYYEPLIQKNDKEFKEGMERARKEVNYAADTDAVATLFSTKKNFTNDNTEDDVIELSDKLYNLKNKPDKSTITIQIGKPTINTKKAFYDDNRPIEYGVHSKGELEHHHHHH | not soluble
16 | MSLADIGSDHAYLPCYAVLNHKASGAIAGEITDGPFLSAKRQVEKSGLNSHISVRQGDGLEVIKKGEADAITIAGMGGALIAHILEAGKDKLTGKERLILQPNIHAVHIREWLYKERYALIDEVILEEDGKCYEVLVAEAGDRDAAYDGISLSAGMLVGPFLAKEKNAVFLKKWTQELQHTQSIYEQISQAADTEQNKQKLKELADRMELLKEVIDHGEGHHHHHH | soluble
17 | MIYRFTIISDEVDDFVREIQIDPEATFFDLHEAILKAANYTNDQMTSFFICDDDWEKEKEITLEEMDNNPEMDSWIMKETRLNELIEDEKQKLLYVFDYMTERCFFIELSEIITGKEIKGAKCTKKSGEAPKQTVDFEEMAAGGGSLDLDENFYGDQDFDMEDFDAEGFDVNDGAAGGGSSYDEDKFLEHHHHHH | soluble
18 | MVVSMRWLLSVFTFLCMKYSEASNPRAIILQNFMDSNKEAVKNLKDDNVLSKALVKTFGLNSSSSSSLSDESSSNLVLMDSTTPCDSGWTKSTVNGMCYKIATADTTWYAAEDWCYSQRYGSHLTSVHSEAEAQWIAATYVSTGWFPYMDNWLGLRRSCDNSTYIWTDGTPVDYLWWQPGYPGSGDPEKSCVTIWVTSLLKLNPGYVQGQFDDIWDCGTNLATPTCRYDPTSTAPHIKYDTSYTCASTTTVSTTSTVTTTKPTTTTTTPTTTTTTPTTTTTESTTTETTSTTTPTTTTTAPTTTTTASTTTFKTTTITTTTQTTTPTTTATTTKPTTTTPTTTRTPVDCSAKCDPFWVSYSDGCYAKIQGTATFETAKLGCQSVGGEMAVITDAAMNEAIRLAFSTNIDSSVSNQAWIGTSSYSNWAPGKPDKAQGVAYSSYCNVIALSVVNKGKDFGFSRGVWTDYPCSLKQEFAICKRI | not soluble
19 | MVYLKGQIRKALSGFYYVYADGETYQTRARGNFRNRKITPLVGDEVLFESDNLTDGYVLEILPRRNELVRPPVANVDLGVVVMSMVSPNFSFNLLDRFLVSLEYKDIEPVIYLTKVDLLDEPQRQQVTEIKQIYEALGYAVIASEDVEATKELERFFPERLTVFMGQSGAGKSTLLNQISPELQLATAEISQSLGRGKHTTRHVELIPLYDGLVADTPGFSAIDFLEMEAVELPKQFPEFVAAASHCKFRECMHHKEPGCEVKRQVEAGTIATSRYENYLQFLMEIENRRPVYKKKS | not soluble
20 | GPGSMCKLHVKRTAAHSSCAVTKDNFNAIGYGARLVFKICNIADCIVRNGESNRVLSVSSTIMSMSVIHGGITIQTIPVHCVFNYELCNPLRMAHVDRQKCAPGYVVSDPLPEINEYSDADVVIKNLLSAHSLHDAHEKNAFTALVRAMISDRDMQKLGGNTEADQYALIGVFLILYGPGSIKIANQENELVPKKHVDYCGKKQIMNLTRKNHDT | not soluble
21 | MGSDKIHHHHHHMVNSLTTPEPQTLKPGVKAPVQETLLTPRFYTTDFDAVANLDISANEAEIRAVVEELRADYNRHHFVRDEEFKQSWDHITGEKRRAFIDFLERSCTSEFSGFLLFKELSRRIKSRNPLLAEAFEFMARDEARHAGFLNKSMSDLNLSLDLNYLTKNRTYTFFPPEWVIYTVYLSEKIGYWRYILVHQHMQEHPEYQFYPLFRKFESWCQDENRHGDFFKALLRSQPQLWKNWKARLWVRFFLLTVFVTHTMTVFERASFYESIGIHPRKYNNRVIQETNNTSARAFPLILNTNHPLFFWRLEQCWENNMKLAAIKNNKLPNFVKFFQRIPPATAIFWNMLRLFLIKPIDTEATRGTVL | not soluble
22 | MDERDVLWVGVCAMPKKVESEPMQRILAALTSSRVAHFEPMIFDAKTLFERPIHKWPVCDALIAFHSEGFPLERAIAYAELRRPYCLNGLREQRMLLDRSKVYEVLARERVPVPRHIVVRHDGADVGRTDTRFVEHDDYIEYCGERLFKPFVEKPIDAEDHRVCIYYARPLYGRRRLFRKTANQSSVFEPGWRRVRREGAFIYEEFIPSEHQSDIKVYAVGPEYAYAERRKSPVVDGIVERNAHGKELRFPVELSTAERCVAATITAAFRQFVCGFDLIRHADGNAFYVNDVNGFSFVKGSQSYYESCGRILAEHLARECARSAAVDGE | not soluble
23 | MARLNVKPTRMELSNLKNRLKTATRGHKLLKDKRDELMRRFVDLIRENNELRQTLEKELAANMKEFVLAKASENSLMVEELFAVPVHEVTLWIDIENIMSVNVPKFHVQSNTAREQEQGEFAYSYLSSNSEMDNTIQKTKELLEKLLRLAEVEKTCQLMADDIEKTRRRVNGLEYSIIPQLEETIHYIELKLEEAERASLVRIMKITSLEHHHHHH | not soluble
